The data set concerns HEK293T cells. Nature of the data set: Expression of CD5 binder (ATAK) receptor and GFP by flow cytometry with labeled CD5 after LINE-1 plasmid transfection. Type of data set: cell-based, human. The text has this:
HEK 293 cells were transfected with a plasmid having the LINE-1 elements, with a 3 kb cargo sequence encoding recombinant receptor protein CD5-intron-fcr-PI3K (ATAK) that is interrupted by an intron sequence in the CD5 binding domain. The cargo is a chimeric receptor that has a CD5 binding extracellular domain, a FCRγ transmembrane domain, and an intracellular domain having a PI3-kinase recruitment domain. As in the design of the experiment above, the ATAK receptor cannot express unless it is integrated in the genome and the intron is spliced off. Following transfection in HEK293T cells, the receptor expression is detected using labeled CD5 as bait for the CD5 binding extracellular domain. Results shown in FIGS. 9B and 9C show successful integration and expression of the receptor. 36.5% cells were ATAK (CD5 binder) positive (FIG. 9C).
In a further modification, a LINE-1 construct (LINE-1plasmid-cd5_fcr-pi3k_t2a_GFPintron) with a longer 3.7 kb cargo sequence encoding a non-interrupted recombinant receptor protein CD5-intron-fcr-PI3K and an interrupted GFP sequence with a T2A sequence between receptor and the GFP sequences (FIG. 10A). […] Exemplary fluorescence identification of GFP and fluorescent tagged CD5 binding and gating quantitation for experimental runs are shown in FIG. 10C and FIG. 10D.
The cargo GFP gene in the previous construct was replaced with intron interrupted CD5-FcR-P13K CAR-M sequence (Morrissey et al., 2018). The CD5 binder expression was measured by flow cytometry using a Alexa647-conjugated CD5 protein such that retrotransposed cells are CD5-AF647 positive (red histogram) compared with a plasmid transfected negative control cell population (grey histogram) (FIG. 30).
The cargo gene length was extended by adding the intron-interrupted GFP gene after the T2A sequence downstream of the CD5-FcR-PI3K CAR-M sequence (FIG. 31). The CD5 binder expression was measured by flow cytometry using a Alexa647-conjugated CD5 protein. […]
In general terms: Flow cytometry measures light scatter and fluorescence of single cells or particles in a stream.

B1: CD5-intron-fcr-PI3K: LINE-1 plasmid with 3 kb cargo encoding intron-interrupted CD5 binding chimeric receptor (ATAK) (SEQ ID NO: 39) (nucleic acid)
DNA: CGGCCGCGGGGGGAGGAGCCAAGATGGCCGAATAGGAACAGCTCCGGTCTACAGCTCCCAGCGTGAGCGACGCAGAAGACGGTGATTTCTGCATTTCCATCTGAGGTACCGGGTTCATCTCACTAGGGAGTGCCAGACAGTGGGCGCAGGCCAGTGTGTGTGCGCACCGTGCGCGAGCCGAAGCAGGGCGAGGCATTGCCTCACCTGGGAAGCGCAAGGGGTCAGGGAGTTCCCTTTCCGAGTCAAAGAAAGGGGTGACGGACGCACCTGGAAAATCGGGTCACTCCCACCCGAATATTGCGCTTTTCAGACCGGCTTAAGAAACGGCGCACCACGAGACTATATCCCACACCTGGCTCGGAGGGTCCTACGCCCACGGAATCTCGCTGATTGCTAGCACAGCAGTCTGAGATCAAACTGCAAGGCGGCAACGAGGCTGGGGGAGGGGCGCCCGCCATTGCCCAGGCTTGCTTAGGTAAACAAAGCAGCAGGGAAGCTCGAACTGGGTGGAGCCCACCACAGCTCAAGGAGGCCTGCCTGCCTCTGTAGGCTCCACCTCTGGGGGCAGGGCACAGACAAACAAAAAGACAGCAGTAACCTCTGCAGACTTAAGTGTCCCTGTCTGACAGCTTTGAAGAGAGCAGTGGTTCTCCCAGCACGCAGCTGGAGATCTGAGAACGGGCAGACTGCCTCCTCAAGTGGGTCCCTGACCCCTGACCCCCGAGCAGCCTAACTGGGAGGCACCCCCCAGCAGGGGCACACTGACACCTCACACGGCAGGGTATTCCAACAGACCTGCAGCTGAGGGTCCTGTCTGTTAGAAGGAAAACTAACAACCAGAAAGGACATCTACACCGAAAACCCATCTGTACATCACCATCATCAAAGACCAAAAGTAGATAAAACCACAAAGATGGGGAAAAAACAGAACAGAAAAACTGGAAACTCTAAAACGCAGAGCGCCTCTCCTCCTCCAAAGGAACGCAGTTCCTCACCAGCAACAGAACAAAGCTGGATGGAGAATGATTTTGATGAGCTGAGAGAAGAAGGCTTCAGACGATCAAATTACTCTGAGCTACGGGAGGACATTCAAACCAAAGGCAAAGAAGTTGAAAACTTTGAAAAAAATTTAGAAGAATGTATAACTAGAATAACCAATACAGAGAAGTGCTTAAAGGAGCTGATGGAGCTGAAAACCAAGGCTCGAGAACTACGTGAAGAATGCAGAAGCCTCAGGAGCCGATGCGATCAACTGGAAGAAAGGGTATCAGCAATGGAAGATGAAATGAATGAAATGAAGCGAGAAGGGAAGTTTAGAGAAAAAAGAATAAAAAGAAATGAGCAAAGCCTCCAAGAAATATGGGACTATGTGAAAAGACCAAATCTACGTCTGATTGGTGTACCTGAAAGTGATG
Take B1: the “cells ATAK (CD5 binder) positive” value (HEK293T cells transfected with LINE-1 plasmid, 3 kb cargo, labeled CD5 as bait, FIG. 9C) is given as 36.5%.

B2: LINE-1plasmid-cd5_fcr-pi3k_t2a_GFPintron: LINE-1 plasmid with 3.7 kb cargo: CD5 binding receptor, T2A, intron-interrupted GFP (SEQ ID NO: 40) (nucleic acid)
DNA: CGGCCGCGGGGGGAGGAGCCAAGATGGCCGAATAGGAACAGCTCCGGTCTACAGCTCCCAGCGTGAGCGACGCAGAAGACGGTGATTTCTGCATTTCCATCTGAGGTACCGGGTTCATCTCACTAGGGAGTGCCAGACAGTGGGCGCAGGCCAGTGTGTGTGCGCACCGTGCGCGAGCCGAAGCAGGGCGAGGCATTGCCTCACCTGGGAAGCGCAAGGGGTCAGGGAGTTCCCTTTCCGAGTCAAAGAAAGGGGTGACGGACGCACCTGGAAAATCGGGTCACTCCCACCCGAATATTGCGCTTTTCAGACCGGCTTAAGAAACGGCGCACCACGAGACTATATCCCACACCTGGCTCGGAGGGTCCTACGCCCACGGAATCTCGCTGATTGCTAGCACAGCAGTCTGAGATCAAACTGCAAGGCGGCAACGAGGCTGGGGGAGGGGCGCCCGCCATTGCCCAGGCTTGCTTAGGTAAACAAAGCAGCAGGGAAGCTCGAACTGGGTGGAGCCCACCACAGCTCAAGGAGGCCTGCCTGCCTCTGTAGGCTCCACCTCTGGGGGCAGGGCACAGACAAACAAAAAGACAGCAGTAACCTCTGCAGACTTAAGTGTCCCTGTCTGACAGCTTTGAAGAGAGCAGTGGTTCTCCCAGCACGCAGCTGGAGATCTGAGAACGGGCAGACTGCCTCCTCAAGTGGGTCCCTGACCCCTGACCCCCGAGCAGCCTAACTGGGAGGCACCCCCCAGCAGGGGCACACTGACACCTCACACGGCAGGGTATTCCAACAGACCTGCAGCTGAGGGTCCTGTCTGTTAGAAGGAAAACTAACAACCAGAAAGGACATCTACACCGAAAACCCATCTGTACATCACCATCATCAAAGACCAAAAGTAGATAAAACCACAAAGATGGGGAAAAAACAGAACAGAAAAACTGGAAACTCTAAAACGCAGAGCGCCTCTCCTCCTCCAAAGGAACGCAGTTCCTCACCAGCAACAGAACAAAGCTGGATGGAGAATGATTTTGATGAGCTGAGAGAAGAAGGCTTCAGACGATCAAATTACTCTGAGCTACGGGAGGACATTCAAACCAAAGGCAAAGAAGTTGAAAACTTTGAAAAAAATTTAGAAGAATGTATAACTAGAATAACCAATACAGAGAAGTGCTTAAAGGAGCTGATGGAGCTGAAAACCAAGGCTCGAGAACTACGTGAAGAATGCAGAAGCCTCAGGAGCCGATGCGATCAACTGGAAGAAAGGGTATCAGCAATGGAAGATGAAATGAATGAAATGAAGCGAGAAGGGAAGTTTAGAGAAAAAAGAATAAAAAGAAATGAGCAAAGCCTCCAAGAAATATGGGACTATGTGAAAAGACCAAATCTACGTCTGATTGGTGTACCTGA
As to B2, under “3.7 kb cargo, flow cytometry signal in Q2, Alexa647-conjugated CD5 protein, FIG. 31”, the “cells express both CAR-M and GFP proteins” value is 10.8%. The “increase of the ATAK receptor and GFP double-positive cells” value (3.7 kb cargo, normalized against mock-transfected cells, FIG. 10B) is on record as “greater than 10 fold”.
